We go through one molecule from publication PMC3561183, “Discovery of a Siderophore Export System Essential for Virulence of Mycobacterium tuberculosis” (PLoS Pathogens, 2013).

This assay addresses T1, Loop L1 of MmpL4 (residues 58-199) (Mycobacterium tuberculosis, UniProt P9WJV3 58-199).
T1 construct: MmpL4 of Mycobacterium tuberculosis, predicted loop L1 between TM1 and TM2, residues 58-199; also called L1 loop of MmpL4; periplasmic loop of MmpL4
T1 sequence: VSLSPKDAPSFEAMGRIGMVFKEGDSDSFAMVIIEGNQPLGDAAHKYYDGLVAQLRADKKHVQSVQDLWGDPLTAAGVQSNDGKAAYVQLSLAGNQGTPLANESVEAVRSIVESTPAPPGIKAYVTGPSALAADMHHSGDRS
Kind of assay: pull-down. To be noted: both partners purified.

B1: C-terminal soluble domain of MmpS4 (residues 52-140) (domain or fragment)
chain: HLTYEIFGPPGTVADISYFDVNSEPQRVDGAVLPWSLHITTNDAAVMGNIVAQGNSDSIGCRITVDGKVRAERVSNEVNAYTYCLVKSA
notes: MmpS4 (rv0451c) of Mycobacterium tuberculosis, residues 52-140: N-terminally truncated, lacks the predicted transmembrane helix; also called MmpS4_(52-140); water-soluble domain of MmpS4
With B1, the binding result was “binds”.
